Here are results for 31 molecules from US20220249563A1 (LEGEND BIOTECH IRELAND, published 2022).

To fix the notation:
T1: extracellular domain of human DLL3 protein (aa27-466) having an N-terminal FLAG tag (AdipoGen, AG-40B-0151) (human, UniProt Q9NYJ7 27-466)
T1 construct: range 27-466; also called DLL3 ECD protein
T1 sequence (looked up): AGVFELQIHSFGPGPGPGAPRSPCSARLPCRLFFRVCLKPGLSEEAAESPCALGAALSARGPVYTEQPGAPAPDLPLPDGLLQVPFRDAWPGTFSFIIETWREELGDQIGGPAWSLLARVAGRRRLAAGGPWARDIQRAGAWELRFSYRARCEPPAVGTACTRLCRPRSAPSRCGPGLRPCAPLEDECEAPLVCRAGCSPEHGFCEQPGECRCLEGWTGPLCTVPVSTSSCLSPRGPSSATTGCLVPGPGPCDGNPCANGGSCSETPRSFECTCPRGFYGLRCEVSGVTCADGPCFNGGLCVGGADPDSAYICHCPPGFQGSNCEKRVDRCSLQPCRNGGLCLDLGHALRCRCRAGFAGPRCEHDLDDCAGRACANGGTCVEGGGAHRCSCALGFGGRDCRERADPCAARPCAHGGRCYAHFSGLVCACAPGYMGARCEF

B1: AS64118 (VHH)
VHH: QVQLAESGGGSVQAGGSLRLSCAASGYTYSACRMAWYRQAPGKERELVSFINSAGSTYYADSVKGRFAISRDNAKTTVYLQMNALKAEDTAIYYCNTWDSSCRFQYWGQGTQVTVSS
notes: camel sdAb; crude E. coli supernatant
B2: AS64605 (VHH)
VHH: QVKLVESGGGSVQAGGSLRLSCAVSRYPYSSICMGWFRQAPGKESEGVARIYTGTGSTWYTDSVKGRFTIARDNAQNTVYLQMNSLKPEDTAMYYCAARSNSYSYSSCDYGPLTRGGYNFWGQGTQVTVSS
notes: as for B1
B3: AS63984 (VHH)
VHH: QVKLVESGGGSVQAGGSLRLSCAASGYTYSSNFMGWFRQAPGKEREGVATIVSGGGTTYYADSVRGRFTISQDNAKNTVYLQMNSLKPEDTAMYYCAAGGPVTNAPRWYPLRPPGYNYWGQGTQVTVSS
notes: as for B1
B4: AS64207 (VHH)
VHH: B3 VHH with Q1E, K3Q, V102P, A105G, P106A, R107K
notes: as for B1
B5: AS64183 (VHH)
VHH: QVHLVESGGGSVQAGGSLRLSCAASGHTYSANCMAWFRRAPGKEREWVASVYTDDDSTMYTDSVKGRFTIFQDNAKNTVYLQMNSLKPEDTGMYICAADLSGGPAGCGYTHWGQGTQVTVSS
notes: as for B1
B6: AS64336 (VHH)
VHH: QVQLVESGGGSVQAGGSLRLSCTTSGRTYSSCSMGWYRQAPGKERELVSHIFSDGSRYYADSVKGRFTISQDNAKNTVYLQMNSLKPEDTAMYYCNRRTGWAPRCAVPGYWGQGTQVTVSS
notes: as for B1
B7: AS64120 (VHH)
VHH: QVRLVESGGGSVQAGGSLRLSCETSRYIYGNNCMAWFRQAPGKEREGVASIYPAGGRPYYADSVKGRFTISQDNAKNTVYLQMDSLKPEDTAMYYCAARSFSIADCATQSGITRSNFAYWGQGTQVTVSS
notes: as for B1
B8: AS64093 (VHH)
VHH: B7 VHH with R3H, E23A, P58T, M83I, A104G, D105V, R114W
notes: as for B1
B9: AS63951 (VHH)
VHH: B7 VHH with R3H, V5M, S21A, Y27D, D105V, Q109R
notes: as for B1
B10: AS64562 (VHH)
VHH: EVQLVESGGGSVQAGGSLRLSCAASGYTARRDFMAWFRQVPGKEREGVAVIHTGGDTTYYADSVKGRFTISRDNAQNIMNLQMNSLKPEDTAMYYCAAGFRPRGGGYTGDVLAQAAAYNYWGQGTQVTVSS
notes: as for B1
B11: AS68320 (VHH)
VHH: QVHLVESGGDSVQAGGSLRLSCAASGYTYNTNYMGWFRQAPGKEREGVAAIYRHSGNTAYADSVKGRFTISQDYAKNTVYLQMNSLKPEDTAMYYCAAGRAGPWALMRPTEFGYWGQGTQVTVSS
notes: as for B1
B12: AS64124 (VHH)
VHH: QVKLVESGGGSVQTGGSLRLSCAVSTYTPSNNYMGWFRQAPGKEREGVAAIATIGGTTRYADSVKGRFTISQDGAKNTIYLQMNGLKPEDTAMYYCAAGRPYSLPLPLPLESGAYRYWGQGTQVTVSS
notes: as for B1
B13: AS64583 (VHH)
VHH: EVQLAESGGGLVQAGGSLRLSCTASGFTIAVYTMGWFRQAPGKEREGISCTSWAGGRTYTADSVKGRFTISRDNAKNTLYLQMNSLKPEDTAMYYCAAKAHPDCSGDWSPSGYEYWGQGTQVTVSS
notes: as for B1
B14: AS68270 (VHH)
VHH: QVQLAESGGGSVQAGGSLRLSCVASGYPSSTYYMLSMAWFRQAPGKEREGVAAITSGTGSTSYADSVKDRFTISKDYANNTLYLHINNLKPEDTAMYYCAAASGWIVPSRSLTANLYRYWGQGTQVTVSS
notes: as for B1
B15: AS63964 (VHH)
VHH: QVRLVESGGGSVQAGGSLRLSCSASGYTYSYNNMGWFRQAPGNEREGVAAISGGRFTAYADSVKGRFTISRDNAENTLYLQMNNLKPEDTGMYYCAAEVVDPTWGSRDQRRYKYWGQGTQVTVSS
notes: as for B1
B16: AS64420 (VHH)
VHH: EVQLVESGGGSVQAEGSLRLSCAASGDTSRSVWMGWARQVPGKEREVVATISTAGGSTWYTDSVKGRFTISQDNAKNTVYLQMNSLKPEDTAIYYCAARSRYATYWGQGTQVTVSS
notes: as for B1
B17: AS64594 (VHH)
VHH: QVHLVESGGGSVQAGGSLRLSCAASGYTYNSNYMGWFRQAPGKEREGVALIYTGGGSTYYADSVKGRFTISRDNAKNTVYLQMNSLKPEDTAMYYCSVRTQTRNYWGQGTQVTVSS
notes: as for B1
B18: AS68121 (VHH)
VHH: EVQLAESGGGSVQAGGSLRLSCDASGYTYSRNCMGWFRQAPGKEREGVAAFYTDYIRFGRTYYADSVKGRFTIFQDNAKNTVYLQMNSLKPEDTAMYYCAADPGSRTDDSCGTSYNKGNFGYWGQGTQVTVSS
notes: as for B1
B19: AS64513 (VHH)
VHH: EVQLVESGGGSVQAGGSLRLSCVASDYPYIDNCMGWFRQGPGKEREGVAAACTGGGSTYYADSVKGRFTISRDNAKNTVYLQMNSLKPEDTDVYYCATGYYSGSGPGYLLPWRYNYWGQGTQVTVSS
notes: as for B1
B20: AS68170 (VHH)
VHH: QVQLVESGGGSVQAGGSLRLSCTASGYTYRSNCMGWFRQAPGKEREGVATIYTGGGRNLYYADSVKGRFTISRDNAKNTLYLQMNSLKPEDSARYYCAAASDVAVGVNSCGGRTAGFDAWGQGTQVTVSS
notes: as for B1
B21: AS64346 (VHH)
VHH: QVHLVESGGGSVQAGGSLRLSCAASGYTYFMGWFRQAPQKEREWVATIGTGDIFNGAAYYVDSVKGRFAISQDNAKNTVYLQMNSLKPEDTAVYVCAAVQSKSSNYVLRDASTYNYWGQGTQVTVSS
notes: as for B1
B22: AS64135 (VHH)
VHH: QVKLVESGGGSVQAGGSLRLSCVASTSTYCRYYMRWYRQAPGKEREFVSAMQPDGTTSYSDSVKGRFTMSQDRANNMLYLQMNSLRPEDTAMYYCKRDPMGGSRTPCTSAWGQGTQVTVSS
notes: as for B1
B23: AS64475 (VHH)
VHH: QVQLQESGGGSVQAGGSLRLSCAASGYTWSRNWMGWFRQAPGKEREGFATITISGGSTWYADSVKGRFTISLDNAGNTVYLQMNSLKPEDTAMYYCAARDTARTYWGQGTQVTVSS
notes: as for B1
B24: AS64163 (VHH)
VHH: QVRLVESGGGSVQAGGSLRLSCAVSGYRYRWNCMAWFRQAPGKEREGVAAISTGSGSTYYAGSVKGRFTISQDNAKNMYLQMNSLKPEDTAMYYCAADPSVCPGGMWYSKEYRYWGQGTQVTVSS
notes: as for B1
B25: AS64116 (VHH)
VHH: QVKLVESGGGSVQAGGSLRLSCAASGYIYSCVGWFRQAPGKEREGVAGISTGGGGTVYADSVKGQFTISRDNAKNTVYLQMDSLKPEDTAMYYCAADRWNSFANCGAWGRYTYWGQGTQVTVSS
notes: as for B1
B26: AS63948 (VHH)
VHH: QVQLVESGGGSVQAGGSLRLSCTASGYTYRYLYMGWFRQTPGKEREGVACIYTGSGSTGYADSVKGRFTISQDNAENTVYLQMNSLKPEDTAMYYCAAASPRWGGTCRRWSEYNYWGQGTQVTVSS
notes: as for B1
B27: AS64182 (VHH)
VHH: B26 VHH with Q3H, V5M, Y27Q, Y29S, E76K, M83T, A99S, R102H, N114K
notes: as for B1
B28: AS64473 (VHH)
VHH: B26 VHH with Q3R, G35A, S57T, E76K, K87N, P88A, A99S, R102Q
notes: as for B1
B29: AS64154 (VHH)
VHH: B26 VHH with V5K, E76K, S85N, A99S, E112Q
notes: as for B1
B30: AS64276 (VHH)
VHH: QVHLMESGGGSVQAGGSLSLSCVVSGYTGSSRCMAWFRQAPGKEREAVAQIFTGRGTTGYADSVKGRFTISQDNAKNTVYLRMNSLRPEDTAIYYCAASLGPGRGACGYNYWGQGTQVTVSS
notes: as for B1
B31: AS63930 (VHH)
VHH: EVQLAESGGGSVQAGGSLRLSCAASGYTYSGNYMAWFRQAPGNEREGVAVVYNIDGGGRFTTYADSVKGRFTISRGNDKNTVYLQMNSLKPEDSGMYYCAAEVADPTWGSRDQRRYKYWGQGTQVTVSS
notes: as for B1

Residue numbers refer to the chain shown, from its start.

The assay addresses T1, extracellular domain of human DLL3 …. Put plainly: ELISA (protein), FACS (cells). In general terms: In an ELISA, binding on a coated surface is turned into a signal by an enzyme label.
B1: the binding result is reported as “binds”.

B2: the binding result was “binds”.

B3: the binding result is given as “binds”.

Turning to B4, the binding result was “binds”.

On to B5, for which the binding result is listed as “binds”.

In the case of B6, the binding result is “binds”.

Regarding B7, the binding result is given as “binds”.

As to B8, the binding result was “binds”.

Regarding B9, the binding result is reported as “binds”.

Consider B10, for which the binding result is recorded as “binds”.

B11: the binding result is recorded as “binds”.

B12: the binding result is on record as “binds”.

As for B13, the binding result is “binds”.

For B14, the binding result was “binds”.

For the molecule B15, the binding result is reported as “binds”.

Take B16: the binding result is reported as “binds”.

On to B17, for which the binding result is listed as “binds”.

Take B18: the binding result is recorded as “binds”.

For the molecule B19, the binding result was “binds”.

Take B20: the binding result is “binds”.

With B21, the binding result is “binds”.

For the molecule B22, the binding result is “binds”.

As for B23, the binding result was “binds”.

In the case of B24, the binding result is “binds”.

For B25, the binding result is given as “binds”.

With B26, the binding result is “binds”.

Consider B27, for which the binding result is listed as “binds”.

B28: the binding result was “binds”.

Consider B29, for which the binding result was “binds”.

As to B30, the binding result is “binds”.

With B31, the binding result is listed as “binds”.
